B1: Nanog (endogenous, mouse embryonic stem cells) (other, UniProt Q80Z64 1-305, looked up)
chain: MSVGLPGPHSLPSSEEASNSGNASSMPAVFHPENYSCLQGSATEMLCTEAASPRPSSEDLPLQGSPDSSTSPKQKLSSPEADKGPEEEENKVLARKQKMRTVFSQAQLCALKDRFQKQKYLSLQQMQELSSILNLSYKQVKTWFQNQRMKCKRWQKNQWLKTSNGLIQKGSAPVEYPSIHCSYPQGYLVNASGSLSMWGSQTWTNPTWSSQTWTNPTWNNQTWTNPTWSSQAWTAQSWNGQPWNAAPLHNFGEDFLQPYVQLQQNFSASDLEVNLEATRESHAHFSTPQALELFLNYSVTPPGEI
B2: Flag-tagged Ash2l-N terminus (1-172, the PHD domain) (other, UniProt Q91X20 1-172, looked up)
chain: MAAAGAGPGPGVSAGPGPGAAASATTAEDRETEPVAAGAGEGPSAAPGAEPSSGEAESGDANLVDVSGLETESSNGKDTLEGTGDTSEVMDTQAGSVDEENGRQLGEVELQCGICTKWFTADTFGIDTSSCLPFMTNYSFHCNVCHHSGNTYFLRKQANLKEMCLSALANLT
notes: range 1-172; also called Flag-Ash2l-N; not shown: 3xFlag tag of the p3xFlag plasmid

Test [1] has as its target T1, Ash2l (endogenous, in nuclear extracts of mouse embryonic stem cells) (mouse, UniProt Q91X20 1-623, limits assumed).
T1 construct: Endogenous protein in gel filtration fractions of ESC nuclear extracts or on ESC chromatin
In words: co-IP from gel filtration fraction 1 of ESC nuclear extract; also fraction 3 after Wdr5 knockdown (Ash2l still interacted with OSN). The method, then:
(§1) For samples from gel filtration, we used Centricon (Millipore) to concentrate and desalt the fraction of elute. Cleared sample solution was obtained by centrifugation at 12 000 rpm for 30 min at 4° C., and 0.5-1.5 mg of the sample was used for immunoprecipitations. For identify interacting complex of Ash2l protein, sample was added into primary antibody for 2 h at […] followed by 2 h of further incubation with protein A/G-Sepharose beads. After washing three times with the lysis buffer, immunoprecipitated proteins were eluted from the beads by boiling for 5 min in SDS-PAGE sample buffer and analyzed by immunoblotting.
Nuclear extraction was performed according to the manual instruction. Biochemical fractionation of ESC extracts into seven fractions was performed as described previously (Ang et al., 2011). Briefly, ESCs were lysed with lysis buffer and applied onto […] column (HiPrep 16/60 Sephycryl). […]
To further understand the role of Ash2l in stemness regulation, we used gel filtration analysis (FIG. 2A) followed by Western blot to investigate the profiles of molecular complexes in the nuclei of ESCs (FIG. 2B). […] Subsequently, we assessed these OSN-enriched (fraction 1), OSN/WRD-enriched (fraction 3), and WRD-enriched fractions (fraction 4) in an immunoprecipitation assay. […]
On the technique in general: Size exclusion chromatography separates by hydrodynamic size, large species first.

The target in test [2] is T2, Flag-tagged full-length Ash2l (Ash2l-Full length: 1-623) (UniProt Q91X20 1-623).
T2 construct: range 1-623; Expressed in cells for co-IP, ChIP and reporter assays, or purified from E. coli BL21 for in vitro pull-downs; also called Flag-Ash2l^WT; Flag-Ash2l-F; not shown: 3xFlag tag of the p3xFlag plasmid
In words: co-IP of Flag-tagged Ash2l constructs from nuclear extracts, Western blot. The method, then:
as §1
(§2) To identify the domain(s) of Ash2l responsible for this protein interaction, we constructed expression plasmids for Flag-tagged truncated Ash2l (Ash2l-N-terminus: 1-172, the PHD domain; and Ash2l-C-terminus: 387-623, the SPRY domain) and full-length Ash2l (Ash2l-full length: 1-623; FIG. 2D) for various experiments. First, we overexpressed truncated and full-length Ash2l proteins in HEK293T cells, and subjected the nuclear extracts to immunoprecipitation (FIG. 2E). Rbbp5 associated with full-length Ash2l and Ash2l-C, which is consistent with previous findings (26). Remarkably, Oct4, Sox2, and Nanog associated with full-length Ash2l and Ash2l-N terminus, but not Ash2l-C terminus (FIG. 2E). To further assess the direct protein-protein interaction, Ash2l-N, Ash2l-C, and full-length Ash2l recombinant proteins were purified from bacteria (FIG. 2G) and independently incubated with various recombinant proteins, including Oct4, Sox2 and Nanog, and the p300 (Taz domain) protein. As shown in the in vitro pull-down assays with further analysis using Western blot or Coomassie staining (FIG. 2F and 2G), Ash2l directly interacted with the master stemness factors, Oct4, Sox2, and Nanog through its N terminus (1-172) (FIG. 2F and 2G). We then used the ZDOCK software to simulate the molecular docking between Ash2l and Oct4 and further predicted that several residues at the N terminus of Ash2l, including K117, W118, E180, K190, N217, and K220, may be crucial for the recognition and interaction with Oct4 (FIG. 2H). To determine which residue(s) of Ash2l was important for its interaction with Oct4, we used immunoprecipitation to assess the binding abilities of different Flag-tagged Ash2l mutants (K117A, W118A, E180A, K190A, N217A, and K220A) to Myc-tagged Oct4.
On the technique in general: In western blotting, separated proteins are transferred to a membrane and probed.

For test [3], the target named is Oct4 (endogenous, mouse embryonic stem cells) (mouse, UniProt P20263 1-352). Described as above. The protocol: as §1, §2
Chain of Oct4 (endogenous, mouse embryonic stem cells) (P20263 whole entry): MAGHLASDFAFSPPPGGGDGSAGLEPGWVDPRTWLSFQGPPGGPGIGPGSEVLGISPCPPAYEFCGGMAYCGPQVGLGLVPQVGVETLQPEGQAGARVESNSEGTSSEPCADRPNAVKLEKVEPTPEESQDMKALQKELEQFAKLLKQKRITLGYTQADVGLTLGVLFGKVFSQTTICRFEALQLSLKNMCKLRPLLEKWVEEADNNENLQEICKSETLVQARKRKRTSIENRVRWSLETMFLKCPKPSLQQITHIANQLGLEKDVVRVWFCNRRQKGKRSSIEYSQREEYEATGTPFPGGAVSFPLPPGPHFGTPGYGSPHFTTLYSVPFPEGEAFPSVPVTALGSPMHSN
Test [4] has as its target Sox2 (endogenous, mouse embryonic stem cells) (mouse, UniProt P48432 1-319). The description is as above. The protocol: as §1, §2
Test [5] has as its target B1. Described as above. The method, then:
as §1, §2

We go through two molecules from patent publication US20210102174A1 (TAIPEI VETERANS GENERAL HOSPITAL, published 2021).

Chain of Sox2 (endogenous, mouse embryonic stem cells) (P48432 whole entry): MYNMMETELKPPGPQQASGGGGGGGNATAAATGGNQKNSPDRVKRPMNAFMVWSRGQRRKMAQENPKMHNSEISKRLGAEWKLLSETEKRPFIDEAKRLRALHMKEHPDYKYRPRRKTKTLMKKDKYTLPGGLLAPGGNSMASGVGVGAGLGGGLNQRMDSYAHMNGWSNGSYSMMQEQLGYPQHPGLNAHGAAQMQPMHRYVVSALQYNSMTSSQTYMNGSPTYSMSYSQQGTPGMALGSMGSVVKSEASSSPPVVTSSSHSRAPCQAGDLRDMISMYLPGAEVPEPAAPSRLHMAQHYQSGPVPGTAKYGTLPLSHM

Consider B1, for which the binding result in test [1] and in test [2] was “binds” each time.
Regarding B2, the binding result in test [3], in test [4] and in test [5] was “binds” each time.
